Source: patent US20200216514A1, “Generalized Extracellular Molecule Sensor” (ETH ZURICH, priority 2019, published 2020)
One block for each molecule: values may come before it.

Columns and labels:
[1] = test system: WEN1.3 cells; experiment: Endogenous IL-10 secretion (ELISA) in WEN1.3 hybridoma cells; assay type: cell-based; conditions: for Fold change (IL-10 concentration in supernatant): 0 ng vs. 100 ng RR120/mL, 24 h
Protocol: WEN1.3 cells (See Pogson M et al., Nat. Commun., 2016, 7:12535) were cultivated in DMEM (52100039, Thermo Fisher) supplemented with 10% (v/v) heat-inactivated FBS (F7524, lot BCBS0318V, Sigma-Aldrich), 1% (v/v) streptomycin/penicillin (L0022, Biowest), 10 mM HEPES buffer (Ser. No. 15/630,056, Thermo Fisher), and […] 2-mercaptoethanol (M3148, Sigma-Aldrich) in a humidified atmosphere of 5% CO2 in air at 37° C. Cells were transfected by electroporation with program CQ-104 of the 4D-Nucleofector System (Lonza) and the SF Cell Line 4D-Nucleofector X Kit L (V4XC-2024, Lonza).
For each transfection 1×10^6 cells were washed twice by centrifugation for 5 min at 90 g and then resuspended in 1 mL of Opti-MEM I Reduced Serum Medium (31985062, Thermo Fisher); after washing, the cells were resuspended in 100 μL Lonza SF buffer containing 0.5 μg sleeping beauty transposase expression plasmid (pCMV(CAT)T7-SB100) and 9.5 μg of a plasmid for stable integration and expression of JAK/STAT-GEMS (pLeo695) or MAPK-GEMS (pLeo694). After pulsing, 500 μL prewarmed culture medium was added for 10 min. Cells were transferred to 1 mL culture media in 24-well plates (142475, Thermo Fisher) and were grown for 48 h. For creating stable cell lines, cells were transferred to 3 mL culture media in 6-well plates (140675, Thermo Fisher) and were selected with 5 μg/mL puromycin (ANT-PR-1, InvivoGen) for 14 d. For experiments, cells were centrifuged for 5 min at 90 g and resuspended in culture media (with or without RR120) to give a concentration of 1×10^6 cells/mL, and then 500 μL of the cell suspension was transferred per well of a 48-well plate. IL-10 ELISAs (900-TM53, PeproTech) were performed 24 h after induction.

[2] = cited from earlier work
[3] = test system: JAK/STAT signaling through STAT3; experiment: C-STAR caffeine-inducible STAT3 SEAP reporter assay in HEK-293T cells; assay type: cell-based, human; conditions: 1 μM concentration; C-STARDB1 cells; FIG. 22
Protocol: All cells were cultured in a humidified atmosphere containing 5% CO2 at 37° C.

[4] = target: SunTag8×-mCherry fusion protein; experiment: cell-based or functional assay
[5] = test system: JAK/STAT signaling (STAT3 reporter); experiment: GEMS STAT3-responsive SEAP reporter assay in HEK-293T cells; assay type: cell-based, human; conditions: for Fold change (SEAP reporter): 24 h induction; for Response to erythropoietin: FIG. 5B, with / without F93A modification of EpoR
Protocol: (§1) Human embryonic kidney cells (HEK-293T, American Type Culture Collection (ATCC): CRL-11268) were cultivated in Dulbecco's modified Eagle's medium (DMEM; 52100039, Thermo Fisher) supplemented with 10% (v/v) FBS (F7524, lot BCBS0318V, Sigma-Aldrich) and 1% (v/v) streptomycin/penicillin (L0022, Biowest) in a humidified atmosphere of 5% CO2 in air at 37° C. For experiments, 1.5×10^6 cells in 12 mL DMEM were seeded into 96-well plates (167008, Thermo Fisher) 24 h before transfection. The transfection mix in each well consisted of 125-130 ng of plasmid DNA mixed with 50 μL FBS and antibiotics-free DMEM and 600 ng of polyethyleneimine (24765-1, Polysciences, Inc.). The transfection mix was prepared separately, incubated for 20 min and then added to the cells for overnight transfection. In the morning, medium with the transfection mix was exchanged for 130 μL/well medium with different concentrations of the appropriate inducer or no inducer as a negative control. Reporter output was measured 24 h after induction for all experiments. Plasmid amounts used for transfections per set of six wells of a 96-well plate were as follows:
FIG. 3B; FIG. 4B: 5 ng for each receptor subunit or as indicated in the figure, 150 ng STAT3 reporter plasmid (pLS13), 25 ng STAT3 expression vector (pLS15) and […] (or the appropriate amount to make a total of 775 ng) of a plasmid without mammalian promoter (pDF145).
(§2) FIGS. 5A-C; FIG. 6A; FIG. 8; FIG. 9; FIGS. 10A-B; FIGS. 11A-C; FIG. 12; FIGS. 13A-B: 600 ng of receptor plasmids (for heterodimeric receptors 300 ng of each subunit) and for STAT readout 150 ng of a STAT3 reporter plasmid (pLS13) and 25 ng of a STAT3 expression vector (pLS15); for MAPK-readout 75 ng of a TetR reporter plasmid (pMF111) and 100 ng of a TetR-Elk1 fusion expression vector (MKp37); for NFAT readout 175 ng of a NFAT reporter plasmid (pHY30) and for NF-κB readout 175 ng of a NF-κB reporter plasmid (pKR32).
SEAP concentrations in cell culture supernatants were quantified in terms of absorbance increase due to hydrolysis of para-nitrophenyl phosphate (pNPP). 80 μL of heat-inactivated (30 min at 65° C., then centrifuged for 1 min, 3,220 g) supernatant was mixed in a 96-well dish with 100 μL of 2×SEAP buffer (20 mM homoarginine, 1 mM MgCl2, 21% (v/v) diethanolamine, pH 9.8) and 20 μL of substrate solution containing 20 mM pNPP (Acros Organics BVBA). Samples were measured at 405 nm with a Tecan Genios PRO multiplate reader (Tecan AG) or an EnVision 2104 multilabel reader (PerkinElmer). SEAP production in vivo was quantified with the chemiluminescence SEAP reporter gene assay (cat. no. 11779842001, Sigma-Aldrich) according to the manufacturer's instructions.

[6] = test system: NFAT, STAT3 and MAPK signaling; experiment: GEMS pathway crosstalk reporters (FIG. 13A-B) in HEK-293T cells; assay type: cell-based, human
Protocol: as §1, with “In the morning, medium with the transfection mix was exchanged for 130 μL/well medium with different concentrations of the appropriate inducer or no inducer as a negative control.” left out, “Plasmid amounts used for transfections per set of six wells of a 96-well plate were as follows:” left out
as §2, with “(pKR32). […]” for “(pKR32).”

Molecule: O=S(=O)(O)c1cc(Nc2nc(Cl)nc(Nc3ccc(Nc4nc(Cl)nc(Nc5cc(S(=O)(=O)O)cc6cc(S(=O)(=O)O)c(N=Nc7ccccc7S(=O)(=O)O)c(O)c56)n4)cc3)n2)c2c(O)c(N=Nc3ccccc3S(=O)(=O)O)c(S(=O)(=O)O)cc2c1 [RR120, reactive red 120, reference compound]
- Fold change (IL-10 concentration in supernatant) ([1]; WT WEN1.3 cells (no receptor)): 1.1 fold

Molecule: Cn1c(=O)c2c(ncn2C)n(C)c1=O [caffeine]
- Half-life of caffeine in human blood [2]: approximately five

Molecule: Cn1c(=O)c2[nH]cnc2n(C)c1=O [theophylline]
- Cross-activation of C-STAR by caffeine analogs [3]: modest cross-activation

- Fold change of MAPK reporter (NanoLuc), 0% vs. 0.002 % (v/v) bacterial lysate (SunTag), cells co-transfected with MAPK-GEMSRR120 (Y677F), FIG. 13C [4]: 1.3 fold
- Fold change of SEAP, 0 % vs. 0.002 % (v/v) bacterial lysate (SunTag), FIG. 10A [4]: 6.9 fold
- Fold change of SEAP, 0 % vs. 0.02 % (v/v) bacterial lysate (SunTag), FIG. 10A [4]: 30 fold
- Fold change of STAT3 reporter (SEAP), 0% vs. 0.002 % (v/v) bacterial lysate (SunTag), cells co-transfected with MAPK-GEMSRR120 (Y677F), FIG. 13C [4]: 12.9 fold
- Fold change of STAT3 reporter (SEAP), no inducer vs. 100 ng RR120/mL + 0.002 % (v/v) bacterial lysate (SunTag), cells co-transfected with MAPK-GEMSRR120 (Y677F), FIG. 13C [4]: 14.9 fold
B1: JAK/STAT-GEMSSunTag (pLeo620; scFvαGCN4-EpoRm-IL-6RBm) (receptor, part only; not given: Signal peptide and scFv-EpoR linker, part only)
chain, part: DIVMTQSPSSLSASVGDRVTITCRSSTGAVTTSNYASWVQEKPGKLFKGLIGGTNNRAPGVPSRFSGSLIGDKATLTISSLQPEDFATYFCALWYSNHWVFGQGTKVELKRGGGGSGGGGSGGGGSSGGGSEVKLLESGGGLVQPGGSLKLSCAVSGFSLTDYGVNWVRQAPGRGLEWIGVIWGDGITDYNSALKDRFIISKDNGKNTVYLQMSKVRSDDTALYYCVTGLFDYWGQGTLVTVSAPSPSLPDPKFESKAALLASRGSEELLCFTQRLEDLVCFWEEAASSGMDFNYSFSYQLEGESRKSCSLHQAPTVRGSVRFWCSLPTADTSSAVPLELQVTEASGSPRYHRIIHINEVVLLDAPAGLLARRAEEGSHVVLRWLPPPGAPMTTHIRYEVDVSAGNRAGGTQRVEVLEGRTECVLSNLRGGTRYTFAVRARMAEPSFSGFWSAWSEPASLLTASDLDPLILTLSLILVLISLLLTVLALLSAAANKRDLIKKHIWPNVPDPSKSHIAQWSPHTPPRHNFNSKDQMYSDGNFTDVSVVEIEANDKKPFPEDLKSLDLFKKEKINTEGHSSGIGGSSCMSSSRPSISSSDENESSQNTSSTVQASTVVHSGYRHQVPSVQVFSRSESTQPLLDSEERPEDLQLVDHVDGGDGILPRQQYFKQNCSQHESSPDISHFERSKQVSSVNEEDFVRLKQQISDHISQSCGSGQMKMFQEVSAADAFGPGTEGQVERFETVGMEAATDEGMPKSYLPQTVRQGGYMPQ

B2: JAK/STAT-GEMSRR120: PSV40-VHHA52-EpoRm-IL-6RBm-pA; optimized chimeric receptor (GEMS device) targeting RR120, JAK/STAT signaling (protein)
chain: VQLQESGGGLVQAGDSLKLSCEASGDSIGTYVIGWFRQAPGKERIYLATIGRNLVGPSDFYTRYADSVKGRFAVSRDNAKNTVNLQMNSLKPEDTAVYYCAAKTTTWGGNDPNNWNYWGQGTQVTVSGEFAPSPSLPDPKFESKAALLASRGSEELLCFTQRLEDLVCFWEEAASSGMDFNYSFSYQLEGESRKSCSLHQAPTVRGSVRFWCSLPTADTSSAVPLELQVTEASGSPRYHRIIHINEVVLLDAPAGLLARRAEEGSHVVLRWLPPPGAPMTTHIRYEVDVSAGNRAGGTQRVEVLEGRTECVLSNLRGGTRYTFAVRARMAEPSFSGFWSAWSEPASLLTASDLDPLILTLSLILVLISLLLTVLALLSAAANKRDLIKKHIWPNVPDPSKSHIAQWSPHTPPRHNFNSKDQMYSDGNFTDVSVVEIEANDKKPFPEDLKSLDLFKKEKINTEGHSSGIGGSSCMSSSRPSISSSDENESSQNTSSTVQASTVVHSGYRHQVPSVQVFSRSESTQPLLDSEERPEDLQLVDHVDGGDGILPRQQYFKQNCSQHESSPDISHFERSKQVSSVNEEDFVRLKQQISDHISQSCGSGQMKMFQEVSAADAFGPGTEGQVERFETVGMEAATDEGMPKSYLPQTVRQGGYMPQ
- Fold change (SEAP reporter) ([5]; 0 ng vs. 1 ng RR120/mL): 5.4 fold
- Fold change (SEAP reporter) ([5]; 0 ng vs. 100 ng RR120/mL): 45 fold
- Response to erythropoietin [5]: induced with RR120 but not with erythropoietin
- Ratio of induced versus noninduced SEAP secretion (signal-to-noise ratio) ([5]; RR120 as inducer, FIG. 5C): over 40 fold
- IL-10 secretion upon GEMS activation by RR120 ([1]; FIG. 14): substantially increased IL-10 secretion
- Fold change (IL-10 concentration in supernatant) ([1]; stable polyclonal WEN1.3 cell line expressing the receptor): 1.5 fold
- Crosstalk to other signaling pathways [6]: cancelled the interference with MAPK signaling

B3: pLeo618: PSV40-VHHA52-EpoR3A-IL-6RBm-pA; receptor with Y759A, without F93A modification (protein)
chain: VQLQESGGGLVQAGDSLKLSCEASGDSIGTYVIGWFRQAPGKERIYLATIGRNLVGPSDFYTRYADSVKGRFAVSRDNAKNTVNLQMNSLKPEDTAVYYCAAKTTTWGGNDPNNWNYWGQGTQVTVSGEFAPSPSLPDPKFESKAALLASRGSEELLCFTQRLEDLVCFWEEAASSGMDFNYSFSYQLEGESRKSCSLHQAPTVRGSVRFWCSLPTADTSSFVPLELQVTEASGSPRYHRIIHINEVVLLDAPAGLLARRAEEGSHVVLRWLPPPGAPMTTHIRYEVDVSAGNRAGGTQRVEVLEGRTECVLSNLRGGTRYTFAVRARMAEPSFSGFWSAWSEPASLLTASDLDPLILTLSLILVLISLLLTVLALLSAAANKRDLIKKHIWPNVPDPSKSHIAQWSPHTPPRHNFNSKDQMYSDGNFTDVSVVEIEANDKKPFPEDLKSLDLFKKEKINTEGHSSGIGGSSCMSSSRPSISSSDENESSQNTSSTVQASTVVHSGYRHQVPSVQVFSRSESTQPLLDSEERPEDLQLVDHVDGGDGILPRQQYFKQNCSQHESSPDISHFERSKQVSSVNEEDFVRLKQQISDHISQSCGSGQMKMFQEVSAADAFGPGTEGQVERFETVGMEAATDEGMPKSYLPQTVRQGGYMPQ
- Response to erythropoietin [5]: respond strongly to erythropoietin
